Source: patent US20230272047A1 (University of Washington, published 2023)
Changes are numbered by the printed parent chain. In names and notes the source's numbering stands.

Experiments:
[1] = target: T1, human transferrin receptor 1 ectodomain, biotinylated (human, UniProt P02786 89-760, biotinylated in vitro (Avidity kit) at the C-terminal Avi tag); assay: single concentration biolayer interferometry (1 µM design)
T1 construct: extracellular domain; Expressed as IgK-sFLAG-His-Sen-TEV-TfR1-his-Avi in the Daedalus system; The N-terminal expression tag was cleaved with TEV; In yeast display it was detected with streptavidin-phycoerythrin; also called hTfR; hTfR ectodomain; not shown: C-terminal his-Avi tag (printed 'his-Avin')

[2] = target: T1, human transferrin receptor 1 …; assay: biolayer interferometry, biotinylated hTfR on streptavidin biosensors
[3] = target: T1, human transferrin receptor 1 …; assay: single concentration biolayer interferometry, biotinylated hTfR on streptavidin biosensors

T1 sequence (P02786 89-760): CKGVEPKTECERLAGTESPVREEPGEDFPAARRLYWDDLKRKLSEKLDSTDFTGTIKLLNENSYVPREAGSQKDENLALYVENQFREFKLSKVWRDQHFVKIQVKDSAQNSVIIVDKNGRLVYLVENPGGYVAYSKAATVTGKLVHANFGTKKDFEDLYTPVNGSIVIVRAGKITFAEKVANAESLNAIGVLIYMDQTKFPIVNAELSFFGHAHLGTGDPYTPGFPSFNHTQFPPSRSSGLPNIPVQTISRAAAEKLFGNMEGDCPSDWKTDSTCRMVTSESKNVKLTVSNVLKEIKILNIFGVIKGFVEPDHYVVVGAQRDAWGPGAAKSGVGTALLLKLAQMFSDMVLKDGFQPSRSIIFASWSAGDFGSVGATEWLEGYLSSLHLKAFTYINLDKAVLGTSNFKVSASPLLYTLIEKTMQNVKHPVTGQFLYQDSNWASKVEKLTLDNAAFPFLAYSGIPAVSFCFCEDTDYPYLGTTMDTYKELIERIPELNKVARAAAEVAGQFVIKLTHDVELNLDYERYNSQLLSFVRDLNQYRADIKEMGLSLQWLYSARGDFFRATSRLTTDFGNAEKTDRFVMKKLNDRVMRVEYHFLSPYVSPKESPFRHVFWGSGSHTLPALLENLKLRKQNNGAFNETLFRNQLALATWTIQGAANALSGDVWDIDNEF

B1: 3DS6 (designed binder)
chain: DKEDELRELAKELVREYEKRGVSEEEIALLVALAANFAVVIVFDNEEQAERAAKYIKKKLPSAVIVIFNNFVFVYVDSREDERIAWELAQEAQ
notes: Expressed in E. coli; the N-terminal His tag was cleaved with TEV
binding result [1]: binds

B2: 3DS11 (designed binder)
chain: DLEERVRKAVNEAQEEAKRNNLDENEAALEAALRLGVVVLVVVDSEEQAERVAKYVHKLVPSVRVVIYNNLVFFHVDTDEEARRVYEAAERAQ
notes: as for B1
binding result [1]: binds

B3: 3DS23 (designed binder)
chain: DEEEEEKEEIRRQLDEARERGVSEEEAAIEVAQNFNFIVVVVVDSEEEAERVAEYVRREVPRVHIVIVQNVVFFRVDSDEDARRVWELAQKAQ
notes: as for B1
binding result [1]: binds

B4: 3DS2 (designed binder)
chain: TEDEEYEERVREALEEAKKKNEHNEELVAQIALLILGAVVVIVAESEEAAKRAAQYVRERVPNAKVYVFDNFVFVHAESREDQEAAWRAAQEAM
notes: as for B1
binding result [1]: binds

B5: 3DS10 (designed binder)
chain: TEEERLREEVKRVAQRAEEEGANEEEIAQILLLALNAAVVVVVESEEQAERVAQYIREVVPEALVIVYNNFVVIFVESDEAARRAWEAAERAQ
notes: as for B1
binding result [1]: binds

B6: 2DS25 (purified from E. coli) (designed binder)
chain: DEEEIQKAIEELLRKGVSEEEAAIIIAQRFNVAVVVVVQDERQAKHISEYIRRYIPEADVILFANIVVIKVETEELRKRVWEAAQKAY
notes: Expressed in E. coli with an N-terminal histidine tag and a TEV site; Eluted as a monomer on SEC
binding result [2]: binds

B7: 2DS25_KO (W81A/Q85A) (designed binder)
chain: B6 chain with W81A, Q85A
binding result [3]: no binding
